{"source": "patent WO2021028752A1", "about": "(dated 2021)", "target": "recombinant human TNFa (human, UniProt P01375 77-233, 125I label (only in the receptor inhibition assay))", "sequence (P01375 77-233 limits assumed)": "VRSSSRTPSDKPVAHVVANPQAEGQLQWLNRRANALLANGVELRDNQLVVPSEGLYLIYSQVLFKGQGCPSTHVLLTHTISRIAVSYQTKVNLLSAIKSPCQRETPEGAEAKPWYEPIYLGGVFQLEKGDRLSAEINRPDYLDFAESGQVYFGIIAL", "test": "cell-based or functional assay"}
{"binder": "TNV196 (antibody, V domains shown) VH: QVQLVESGGGVVQPGRSLRLSCAASGFTFSSYAMHWVRQAPGKGLEWVAFISYDGSNKKSADSVKGRFTVSRDNSKNTLFLQMNSLRAEDTAVFYCARDRGIGAGGNYYYYGMDVWGQGTTVTVSS VL: EIVLTQSPATLSLSPGERATLSCRASQSVYSYLAWYQQKPGQAPRLLIYDASNRATGIPARFSGSGSGTDFTLTISSLEPEDFAVYYCQQRSNWPPFTFGPGTKVDIK", "values": [{"measurement": "neutralizing TNFa bioactivity", "result": 4, "unit": "fold"}]}
